# T1: 12 amino acid peptide (HSET-N) labeled with biotin at the N-terminus (bio-…)
# T1 sequence (peptide, biotin at the N-terminus): EDGLEPEKKRTR
# Target: T1, 12 amino acid peptide (HSET-N) labeled with biotin at the N-terminus (bio-…)
# Experiment: SPR; BIAcore T200, 25 °C; biotinylated peptide immobilised on a Series S sensor chip SA at 10-40 RU; antibodies injected 3 min at 30 µl/min in HBS-EP (10 mM HEPES pH 7.4, 250 mM NaCl, 3 mM EDTA, 0.05% P-20); at least five concentrations; 1:2 binding model, which reflects the avidity effect; KD = …
Kd,koff,kon,Binder
2.45 nM,0.00138 s⁻¹,567000 M⁻¹ s⁻¹,"mouse 6C407 IgG2a/κ (antibody, V domains shown) VH: EVQLQQSGAELVKPGASVKLSCTASGFNIKDTYIHWVKQRPEQGLEWIGRIDPANGNTKYDPKFQGKATITADTSSNTAYLQLSSLTSEDTAVYYCARGYGSRSAMDYWGQGTSVTVS VL: DIVLTQSPASLAVSLGQRATISCRASKSVSTSGYSYMLWYQQKPGQPPKLLIYLASNLESGVPARFSGSGSGTDFTLNIHPVEEEDAATYYCQHSRELPWTFGGGTKLEIK"
1.24 nM,0.000632 s⁻¹,511000 M⁻¹ s⁻¹,"chimeric mouse-chicken MC-6C407 IgY/λ (antibody, V domains shown) VH: EVQLQQSGAELVKPGASVKLSCTASGFNIKDTYIHWVKQRPEQGLEWIGRIDPANGNTKYDPKFQGKATITADTSSNTAYLQLSSLTSEDTAVYYCARGYGSRSAMDYWGQGTSVTVS VL: DIVLTQSPASLAVSLGQRATISCRASKSVSTSGYSYMLWYQQKPGQPPKLLIYLASNLESGVPARFSGSGSGTDFTLNIHPVEEEDAATYYCQHSRELPWTFGGGTKLEIK"

# Reference: article PMC6917740
